# Results: the supplement of paper PMC9112550, “Optimization of the antimicrobial peptide Bac7 by deep mutational scanning” (BMC Biology, 2022)
# Tested on: Escherichia coli TOP10
# Experiment: shrunken log2 fold change of peptide-encoding DNA abundance (4.5 h post-induction vs induction); higher = less antimicrobial activity (less host growth inhibition)
# Settings: time post-induction: 4.5 h; library: site-saturation at positions 5, 18, 19, 20
# 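Note: peptides expressed intracellularly from a pBAD plasmid library in pooled LB shake-flask culture, induced with 0.3% L-arabinose, DNA abundance read by NGS, three biological replicates, DESeq2 with apeglm shrinkage.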
row,Sequence,shrunken log2 fold change
1,RRIRIRPPRLPRPRPRPSCQPRP,-0.0446
2,RRIRWRPPRLPRPRPRPRYFPRP,-0.127
3,RRIRVRPPRLPRPRPRPLFDPRP,-0.172
4,RRIRDRPPRLPRPRPRPWWVPRP,-0.335
5,RRIRPRPPRLPRPRPRPITPPRP,0.0216
6,RRIRNRPPRLPRPRPRPAIRPRP,-0.0992
7,RRIRKRPPRLPRPRPRPDCFPRP,0.315
8,RRIRIRPPRLPRPRPRPFAVPRP,0.0425
9,RRIRPRPPRLPRPRPRPNYPPRP,-0.392
10,RRIRVRPPRLPRPRPRPMADPRP,-0.0473
11,RRIRDRPPRLPRPRPRPQTGPRP,-0.283
12,RRIRHRPPRLPRPRPRPRMWPRP,-0.237
13,RRIRERPPRLPRPRPRPPRVPRP,0.342
14,RRIRPRPPRLPRPRPRPRDHPRP,0.279
15,RRIRHRPPRLPRPRPRPWPVPRP,0.155
16,RRIRCRPPRLPRPRPRPYYTPRP,0.00417
17,RRIRNRPPRLPRPRPRPRKHPRP,-0.194
18,RRIRFRPPRLPRPRPRPSYAPRP,-0.116
19,RRIRARPPRLPRPRPRPTGNPRP,0.186
20,RRIRPRPPRLPRPRPRPWNTPRP,-0.0902
21,RRIRIRPPRLPRPRPRPKGGPRP,0.04
22,RRIRVRPPRLPRPRPRPTYVPRP,0.00864
23,RRIRVRPPRLPRPRPRPHNFPRP,-0.418
24,RRIRDRPPRLPRPRPRPWIAPRP,-0.117
25,RRIRKRPPRLPRPRPRPFVPPRP,-0.297

row,Sequence,shrunken log2 fold change
1,RRIRLRPPRLPRPRPRPVWPPRP,0.422
2,RRIRLRPPRLPRPRPRPYIVPRP,-0.0573
3,RRIRPRPPRLPRPRPRPDEMPRP,0.377
4,RRIRERPPRLPRPRPRPHAWPRP,0.146
5,RRIRPRPPRLPRPRPRPTEWPRP,0.0519
6,RRIRRRPPRLPRPRPRPIIFPRP,-0.0332
7,RRIRYRPPRLPRPRPRPKLDPRP,-0.351
8,RRIRIRPPRLPRPRPRPVWQPRP,0.536
9,RRIRERPPRLPRPRPRPFNSPRP,-0.225
10,RRIRARPPRLPRPRPRPIMSPRP,0.0485
11,RRIRCRPPRLPRPRPRPKMCPRP,-0.164
12,RRIRFRPPRLPRPRPRPLHYPRP,-0.299
13,RRIRPRPPRLPRPRPRPKLRPRP,0.204
14,RRIRCRPPRLPRPRPRPLRGPRP,0.835
15,RRIRGRPPRLPRPRPRPAWRPRP,0.934
16,RRIRHRPPRLPRPRPRPMETPRP,-0.0865
17,RRIRYRPPRLPRPRPRPTDWPRP,-0.314
18,RRIRSRPPRLPRPRPRPYYFPRP,-0.664
19,RRIRWRPPRLPRPRPRPGLMPRP,0.444
20,RRIRVRPPRLPRPRPRPPTYPRP,-0.432
21,RRIRSRPPRLPRPRPRPTDRPRP,0.000994
22,RRIRMRPPRLPRPRPRPYIKPRP,-0.86
23,RRIRGRPPRLPRPRPRPLVYPRP,0.0199
24,RRIRARPPRLPRPRPRPPIPPRP,0.319
25,RRIRMRPPRLPRPRPRPGIVPRP,0.332

row,Sequence,shrunken log2 fold change
1,RRIRSRPPRLPRPRPRPGASPRP,0.418
2,RRIRHRPPRLPRPRPRPAYSPRP,-0.000852
3,RRIRSRPPRLPRPRPRPGPGPRP,0.599
4,RRIRRRPPRLPRPRPRPSMNPRP,-0.467
5,RRIRDRPPRLPRPRPRPHTIPRP,-0.351
6,RRIRSRPPRLPRPRPRPDRGPRP,-0.0384
7,RRIRCRPPRLPRPRPRPEIMPRP,-0.0581
8,RRIRYRPPRLPRPRPRPNWYPRP,-1.48
9,RRIRYRPPRLPRPRPRPVGKPRP,-1.51
10,RRIRRRPPRLPRPRPRPKQLPRP,0.148
11,RRIRYRPPRLPRPRPRPNWPPRP,0.394
12,RRIRDRPPRLPRPRPRPMRDPRP,0.131
13,RRIRTRPPRLPRPRPRPYITPRP,-1.19
14,RRIRNRPPRLPRPRPRPEKQPRP,0.0721
15,RRIRLRPPRLPRPRPRPIRDPRP,-0.0112
16,RRIRDRPPRLPRPRPRPVTWPRP,0.0882
17,RRIRQRPPRLPRPRPRPLRYPRP,-0.0738
18,RRIRERPPRLPRPRPRPIVNPRP,-0.0349
19,RRIRYRPPRLPRPRPRPENYPRP,-0.0233
20,RRIRTRPPRLPRPRPRPSTKPRP,-0.145
21,RRIRTRPPRLPRPRPRPGTDPRP,-0.253
22,RRIRIRPPRLPRPRPRPRIHPRP,-0.287
23,RRIRRRPPRLPRPRPRPDQIPRP,-0.122
24,RRIRIRPPRLPRPRPRPGNAPRP,-0.0762
25,RRIRGRPPRLPRPRPRPPHPPRP,0.643

row,Sequence,shrunken log2 fold change
1,RRIRRRPPRLPRPRPRPFYEPRP,-0.0293
2,RRIRFRPPRLPRPRPRPYYQPRP,-0.203
3,RRIRNRPPRLPRPRPRPVDPPRP,0.0584
4,RRIRIRPPRLPRPRPRPEPLPRP,0.0641
5,RRIRGRPPRLPRPRPRPNEWPRP,1.8
6,RRIRWRPPRLPRPRPRPWDSPRP,-0.287
7,RRIRQRPPRLPRPRPRPYHNPRP,-0.945
8,RRIRERPPRLPRPRPRPPYRPRP,0.0947
9,RRIRIRPPRLPRPRPRPGTAPRP,-0.0164
10,RRIRIRPPRLPRPRPRPFFCPRP,-0.106
11,RRIRLRPPRLPRPRPRPNLGPRP,-0.0507
12,RRIRCRPPRLPRPRPRPTLTPRP,-0.14
13,RRIRNRPPRLPRPRPRPQKPPRP,0.0646
14,RRIRLRPPRLPRPRPRPDRDPRP,-0.154
15,RRIRDRPPRLPRPRPRPTFAPRP,0.454
16,RRIRKRPPRLPRPRPRPPHGPRP,0.634
17,RRIRRRPPRLPRPRPRPLNQPRP,0.0755
18,RRIRVRPPRLPRPRPRPIQQPRP,0.00847
19,RRIRRRPPRLPRPRPRPPMIPRP,0.0196
20,RRIRQRPPRLPRPRPRPFFEPRP,0.0893
21,RRIRMRPPRLPRPRPRPCYFPRP,-0.289
22,RRIRLRPPRLPRPRPRPYEKPRP,-0.159
23,RRIRRRPPRLPRPRPRPFDMPRP,-0.0228
24,RRIRRRPPRLPRPRPRPEVTPRP,0.0976
25,RRIRLRPPRLPRPRPRPLKHPRP,-0.161

row,Sequence,shrunken log2 fold change
1,RRIRVRPPRLPRPRPRPYSNPRP,-0.676
2,RRIRDRPPRLPRPRPRPCVDPRP,0.0635
3,RRIRLRPPRLPRPRPRPPKCPRP,0.213
4,RRIRTRPPRLPRPRPRPVTDPRP,0.0266
5,RRIRRRPPRLPRPRPRPWNMPRP,-0.479
6,RRIRARPPRLPRPRPRPALCPRP,0.637
7,RRIRGRPPRLPRPRPRPCMIPRP,0.235
8,RRIRYRPPRLPRPRPRPLWDPRP,-0.717
9,RRIRIRPPRLPRPRPRPCCHPRP,-0.486
10,RRIRMRPPRLPRPRPRPIIFPRP,-0.0918
11,RRIRTRPPRLPRPRPRPCKTPRP,-0.0173
12,RRIRDRPPRLPRPRPRPPGQPRP,0.0311
13,RRIRWRPPRLPRPRPRPSNYPRP,-0.707
14,RRIRNRPPRLPRPRPRPVHHPRP,-2.09
15,RRIRHRPPRLPRPRPRPKGGPRP,0.0418
16,RRIRARPPRLPRPRPRPCVWPRP,0.544
17,RRIRPRPPRLPRPRPRPEHKPRP,-0.00916
18,RRIRFRPPRLPRPRPRPCGIPRP,-0.168
19,RRIRMRPPRLPRPRPRPYVFPRP,-0.368
20,RRIRARPPRLPRPRPRPWNWPRP,0.376
21,RRIRMRPPRLPRPRPRPAWEPRP,0.655
22,RRIRCRPPRLPRPRPRPVHCPRP,0.0148
23,RRIRSRPPRLPRPRPRPHMSPRP,-0.223
24,RRIRQRPPRLPRPRPRPYDFPRP,-0.543
25,RRIRCRPPRLPRPRPRPAWTPRP,-0.154

row,Sequence,shrunken log2 fold change
1,RRIRGRPPRLPRPRPRPTLKPRP,0.769
2,RRIRHRPPRLPRPRPRPQYIPRP,-0.621
3,RRIRMRPPRLPRPRPRPLIKPRP,0.0477
4,RRIRNRPPRLPRPRPRPKLMPRP,-0.109
5,RRIRPRPPRLPRPRPRPAFQPRP,0.156
6,RRIRSRPPRLPRPRPRPTQWPRP,0.354
7,RRIRSRPPRLPRPRPRPRQEPRP,-0.0798
8,RRIRIRPPRLPRPRPRPVNCPRP,-0.34
9,RRIRRRPPRLPRPRPRPCICPRP,-0.0935
10,RRIRWRPPRLPRPRPRPHGRPRP,0.0589
11,RRIRLRPPRLPRPRPRPDVRPRP,0.0235
12,RRIRQRPPRLPRPRPRPFHKPRP,-0.0921
13,RRIRKRPPRLPRPRPRPDYQPRP,-0.0353
14,RRIRCRPPRLPRPRPRPVHPPRP,-0.375
15,RRIRSRPPRLPRPRPRPADRPRP,0.308
16,RRIRNRPPRLPRPRPRPFKVPRP,0.0253
17,RRIRQRPPRLPRPRPRPPYAPRP,-0.189
18,RRIRDRPPRLPRPRPRPARKPRP,0.574
19,RRIRQRPPRLPRPRPRPKFLPRP,-0.157
20,RRIRCRPPRLPRPRPRPRVHPRP,-0.152
21,RRIRKRPPRLPRPRPRPRQPPRP,0.467
22,RRIRPRPPRLPRPRPRPMTPPRP,0.165
23,RRIRMRPPRLPRPRPRPIQTPRP,-0.00151
24,RRIRCRPPRLPRPRPRPNPGPRP,-0.0632
25,RRIRSRPPRLPRPRPRPDEVPRP,0.0037
